Experimental findings from US20020077295A1 (YALE UNIVERSITY, published 2002) are described below.

The labels stand for the following.
B1: 140-AP (fusion protein containing AP and the 1-40 peptide, residues #1055-1094 of hNogoA) (ligand)
chain: RIYKGVIQAIQKSDEGHPFRAYLESEVAISEELVQKYSNS
modifications: also: fused to alkaline phosphatase (AP), order not given here
notes: not shown: alkaline phosphatase of vector pcAP-6
B2: NgLRR- (residues 306 to 473 of mNgR) (receptor, not shown: small tags and cut ends)
chain: LEGCAVASGPFRPIQTSQLTDEELLSLPKCCQPDAADKASVLEPGRPASAGNALKGRVPPGDTPPGNGSGPRHINDSPFGTLPSSAEPPLTALRPGGSEPPGLPTTGPRRRPGCSRKNRTRSHCRLGQAGSGASGTGDAEGS
notes: In pSecTag2, on COS-7 cells; also called complete LRR domain deleted
B3: NgRΔNT (residues 58 to 473 of mNgR) (receptor, not shown: small tags and cut ends)
chain: SSQRIFLHGNRISHVPAASFQSCRNLTILWLHSNALARIDAAAFTGLTLLEQLDLSDNAQLHVVDPTTFHGLGHLHTLHLDRCGLRELGPGLFRGLAALQYLYLQDNNLQALPDNTFRDLGNLTHLFLHGNRIPSVPEHAFRGLHSLDRLLLHQNHVARVHPHAFRDLGRLMTLYLFANNLSMLPAEVLMPLRSLQYLRLNDNPWVCDCRARPLWAWLQKFRGSSSEVPCNLPQRLADRDLKRLAASDLEGCAVASGPFRPIQTSQLTDEELLSLPKCCQPDAADKASVLEPGRPASAGNALKGRVPPGDTPPGNGSGPRHINDSPFGTLPSSAEPPLTALRPGGSEPPGLPTTGPRRRPGCSRKNRTRSHCRLGQAGSGASGTGDAEGS
notes: In pSecTag2, on COS-7 cells; vector tags as for wtNgR; also called amino terminus deletion
B4: AP-Nogo (His-AP-Nogo, 66 amino acid) (ligand)
chain: HHHHHHIIPVEEENPDFWNREAAEALGAAKKLQPAQTAAKNLIIFLGDGMGVSTVTAARILKGQKKDKLGPEIPLAMDRFPYVALSKTYNVDKHVPDSGATATAYLCGVKGNFQTIGLSAAARFNQCNTTRGNEVISVMNRAKKAGKSVGVVTTTRVQHASPAGTYAHTVNRNWYSDADVPASARQEGCQDIATQLISNMDIDVILGGGRKYMFRMGTPDPEYPDDYSQGGTRLDGKNLVQEWLAKRQGARYVWNRTELMQASLDPSVTHLMGLFEPGDMKYEIHRDSTLDPSLMEMTEAALRLLSRNPRGFFLFVEGGRIDHGHHESRAYRALTETIMFDDAIERAGQLTSEEDTLSLVTADHSHVFSFGGYPLRGSSIFGLAPGKARDRKAYTVLLYGNGPGYVLKDGARPDVTESESGSPEYRQQSAVPLDEETHAGEDVAVFARGPQAHLVHGVQEQTFIAHVMAFAACLEPYTACDLAPPAGTTDAAHPGRIYKGVIQAIQKSDEGHPFRAYLESEVAISEELVQKYSNSALGHVNCTIKELRRLFLVDDLVDSLK
notes: also called AP fused Nogo-66
B5: murine NgR (Nogo-66 receptor) expressed on COS-7 cells (receptor)
chain: CPGACVCYNEPKVTTSCPQQGLQAVPTGIPASSQRIFLHGNRISHVPAASFQSCRNLTILWLHSNALARIDAAAFTGLTLLEQLDLSDNAQLHVVDPTTFHGLGHLHTLHLDRCGLRELGPGLFRGLAALQYLYLQDNNLQALPDNTFRDLGNLTHLFLHGNRIPSVPEHAFRGLHSLDRLLLHQNHVARVHPHAFRDLGRLMTLYLFANNLSMLPAEVLMPLRSLQYLRLNDNPWVCDCRARPLWAWLQKFRGSSSEVPCNLPQRLADRDLKRLAASDLEGCAVASGPFRPIQTSQLTDEELLSLPKCCQPDAADKASVLEPGRPASAGNALKGRVPPGDTPPGNGSGPRHINDSPFGTLPSSAEPPLTALRPGGSEPPGLPTTGPRRRPGCSRKNRTRSHCRLGQAGSGASGTGDAEGS
notes: Library clone or pcDNA3.1 construct transfected into COS-7 cells; GPI-linked protein, cleavage site of the GPI signal not applied here; also called mouse NgR; mNgR

Where no end group is shown, it is not given here.

Assay [1] deals with B5. Description: 140-AP binding to COS-7 cells expressing mNgR, bound/free plot. As for the experimental part:
To determine if AP-fused deletion mutants of Nogo-66 bind mouse NgR (“mNgR”), COS-7 cells were transfected with a plasmid encoding the mouse NgR sequence ligated into pcDNA3.1. 48 hours after transfection, cells were washed with HBH (Hanks balanced salt solution containing 20 mM sodium Hepes, pH 7.05, and 1 mg ml⁻¹ bovine serum albumin) and then incubated with condition medium containing one of the AP-fusion proteins described above for 2 hours at 37° C. Cells were then washed, fixed, and left in HBH at 67° C. for 14-16 h to inactivate endogenous AP. AP-fusion protein binding to NgR expressing COS-7 cells was detected with the substrates NBT and BCIP (FIG. 13b).
FIG. 14b graphically depicts the binding of 140-AP to COS-7 cells expressing mNgR as measured as a function of 140-AP concentration.

The target of assay [2] is B4. Description: AP-hNogo-A(1055-1120) binding to transfected COS-7 cells. As to the method: Forty-eight hours after the transfection, the transfected COS-7 cells were washed with hanks balanced salt solution containing 20 mM sodium HEPES, pH 7.05, and 1 mg/ml bovine serum albumin (BSA) [hereinafter “HBH”]. […] AP-fusion protein was detected as previously described for AP-Sema3A (Takahashi et al., Nature Neurosci. 1:487-493, 1998).
Because the NgRΔ1-2, NgRΔ3-4, NgRΔ5-6, and NgRΔ7-8 deletions remove entire LRR domains it is unlikely that the entire tertiary structure of mNgR is disrupted.

Assay [3] addresses T1, AP-NgR (mNgR residues 27-451 fused to 6xHis-placental alkaline phosphatase) (mouse, UniProt P05187 23-511 (human entry)).
T1 construct: Soluble probe in the self-association test
Description: AP-NgR binding to transfected COS-7 cells.

For assay [4], the target named is T2, Nogo binding sites (axonal Nogo receptors) on chick dorsal root ganglion neurons (chick).
T2 construct: Target is defined only by the cells that carry it; also called neuronal receptor site
Description: AP-fusion ligand binding to dissociated neurons, Scatchard analysis. As for the experimental part:
Purified protein was subjected to SDS-PAGE and stained for total protein with CBB or immunoblotted with anti-Nogo antibodies (anti-Nogo). Molecular weight markers of 200, 116, 97, 65 and 45 kDa are shown at left, and the migration of AP-Nogo at right. (b) is a photograph of dissociated chick E12 dorsal root ganglion neurons that were incubated with 10 nM AP-Nogo or 10 nM AP-Nogo+160 nM GST-Nogo for sixty minutes at 23° C. The cells were washed, fixed and incubated at 60° C. in order to inactivate endogenous AP. Bound AP-Nogo was detected by incubation with nitro blue tetrazolium. Note the intense neuronal staining by AP-Nogo that is displaced by unlabeled ligand. (c) is a graph displaying experimental data where the potency of AP-Nogo and GST-Nogo in E12 chick dorsal root ganglion growth cone collapse assays was assessed as described in the Example section. […] The means±s.e.m. calculated from five to eight determinations are illustrated. (d) is a graph displaying experimental data where the binding of 10 nM AP-Nogo to chick E12 dorsal root ganglion neurons was assessed alone, or in the presence of 100 nM GST-Nogo or in the presence of 4 μM Pep2, which was quantified from experiments as in (b) by the method described in the Example section. The means±s.e.m. calculated from eight determinations are shown. […]

In assay [5] the target is T2, Nogo binding sites (axonal Nogo …). Description: cell-based or functional assay.
Assay [6] addresses T3, AP (alkaline phosphatase alone) (UniProt P05187 23-511).
T3 construct: Control without Nogo residues; also called AP alone
The assay is described as follows: AP binding to COS-7 cells transfected with the mouse NgR clone. From the text: This assay was utilized for expression cloning of a NgR. Pools of a mouse adult brain cDNA expression library representing 250,000 independent clones were transfected into non-neuronal COS-7 cells. […] Single cDNA clones encoding a Nogo biding site were isolated by sib-selection from each of the two positive pools. The two independently isolated clones are identical to one another except for a 100 bp extension of the 5′ untranslated region in one clone. […] Furthermore, GST-Nogo displaces AP-Nogo from these sites.

The target in assay [7] is B4. The assay is described as follows: AP-fusion binding to COS-7 cells expressing mouse NgR.
Assay [8] has as its target B4. Description: AP-Nogo binding to COS-7 cells transfected with the mouse NgR clone. From the text: A Nogo binding assay was developed which utilizes a method widely used in examining semaphorin and ephrin axonal guidance function (Flanagan & Vanderhaeghen, (1998) Annu. Rev. Neurosci. 21, 309-345; Takahashi et al., (1999) Cell 99, 59-69). It involves fusing a secreted placental alkaline phosphatase (AP) moiety to the ligand in question to provide a biologically active receptor binding agent which can be detected with an extremely sensitive colorimetric assay. For Nogo, an expression vector was created encoding a signal peptide, a His6 tag for purification, AP and the 66 amino acid active domain of Nogo. The fusion protein can be purified from the conditioned medium of transfected cells in milligram amounts (FIG. 5). This protein is biologically active as a growth cone collapsing agent, with an EC₅₀ of 1 nM. […] Binding is blocked by GST-Nogo and by the antagonistic 25 amino acid peptides, consistent with competitive binding to a neuronal receptor site.
This assay was utilized for expression cloning of a NgR. Pools of a mouse adult brain cDNA expression library representing 250,000 independent clones were transfected into non-neuronal COS-7 cells. […] Single cDNA clones encoding a Nogo biding site were isolated by sib-selection from each of the two positive pools. […]

In assay [9] the target is B5. The assay is described as follows: binding to mNgR, data not shown.

As to B1, the affinity in assay [1], expressed as Kd, was 8 nM. Regarding B2, the binding result in assay [2] and in assay [3] was “no binding” each time. B3: the binding result in assay [2] and in assay [3] was “no binding” in each case. As to B4, in [4], the Kd (usually the equilibrium constant for the complex coming apart) was 3 nM. The “growth cone collapse, chick E12 dorsal root ganglion (EC50)” value in assay [5] was determined as 1 nM.

Regarding B5, the binding result in [6] is recorded as “no binding”. For the same molecule, the Kd was ~7 nM in assay [7] and ~3 nM in [8]. IQKSDEGHPFRAYLESEVAISEELVQKYSNS [peptide having residues 10-40 of hNogoA(#1055-1120)]: in [9], the binding result is “no binding”.
